Laboratory results as given in patent US20060084162A1.

Biological target: Y289L_C342T mutant of the catalytic domain (residues 130-402) of bovine β(1,4)-galactosyltransferase I (bovine) (UniProt P08037)
Experiment: cell-based or functional assay

Chain of UniProt P08037 (P08037 other isoform, or with tags, fused parts or gaps Y289L C342T Y289L C342T): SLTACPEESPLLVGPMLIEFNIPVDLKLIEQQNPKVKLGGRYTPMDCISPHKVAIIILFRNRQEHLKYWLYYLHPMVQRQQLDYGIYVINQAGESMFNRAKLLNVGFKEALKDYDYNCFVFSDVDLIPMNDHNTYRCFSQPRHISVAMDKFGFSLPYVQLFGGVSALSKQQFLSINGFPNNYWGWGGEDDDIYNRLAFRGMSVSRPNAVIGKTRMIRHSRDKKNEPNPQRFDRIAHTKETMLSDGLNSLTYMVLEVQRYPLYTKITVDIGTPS

Substance: bovine α-Lactalbumin (Sigma) (from UniProt P00711 20-142)
- GalNAc-T activity of Y289L mutant with acceptor Glc (100 mM), 500 µM UDP-GalNAc, +LA 55 µM (the value without LA in the same row is 2.6): 34.8 pmol/min/ng
- GalNAc-T activity of Y289L mutant with acceptor GlcNAc (100 mM), 500 µM UDP-GalNAc, +LA 55 µM (the value without LA in the same row is 31.3): 3.3 pmol/min/ng
- GalNAc-T activity of Y289L mutant with acceptor Glucosamine (100 mM), 500 µM UDP-GalNAc, +LA 55 µM (the value without LA in the same row is 1.8): 5 pmol/min/ng
